Publication PMC8096068, “The canonical α-SNAP is essential for gametophytic development in Arabidopsis” (PLoS Genetics, 2021)

Biological target: T1, His-NSF (Arabidopsis, UniProt Q9M0Y8 1-742)
T1 construct: Arabidopsis thaliana N-ethylmaleimide-sensitive factor (NSF), At4g04910; also called NSF-His; his-tagged NSF
T1 sequence (looked up): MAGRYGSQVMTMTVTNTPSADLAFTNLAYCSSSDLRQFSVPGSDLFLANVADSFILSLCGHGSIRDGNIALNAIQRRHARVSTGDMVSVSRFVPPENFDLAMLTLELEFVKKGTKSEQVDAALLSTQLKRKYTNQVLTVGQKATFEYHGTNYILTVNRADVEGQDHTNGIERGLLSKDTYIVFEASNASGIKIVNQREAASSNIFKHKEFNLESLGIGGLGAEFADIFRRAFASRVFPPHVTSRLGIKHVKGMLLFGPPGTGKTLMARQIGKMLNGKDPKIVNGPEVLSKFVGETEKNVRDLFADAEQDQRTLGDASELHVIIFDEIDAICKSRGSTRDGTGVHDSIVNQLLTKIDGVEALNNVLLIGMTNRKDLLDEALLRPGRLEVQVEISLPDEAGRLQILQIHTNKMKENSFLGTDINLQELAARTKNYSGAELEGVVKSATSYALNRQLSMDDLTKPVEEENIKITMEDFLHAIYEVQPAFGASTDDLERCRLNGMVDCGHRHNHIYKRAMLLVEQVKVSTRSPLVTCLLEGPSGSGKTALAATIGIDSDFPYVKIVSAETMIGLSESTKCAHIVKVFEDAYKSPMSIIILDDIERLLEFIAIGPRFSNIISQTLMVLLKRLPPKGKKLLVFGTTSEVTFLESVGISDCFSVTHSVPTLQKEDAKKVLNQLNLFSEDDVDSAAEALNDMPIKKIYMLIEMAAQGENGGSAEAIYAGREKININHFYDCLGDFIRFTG
Experiment: pull-down; in vitro pull-down; NSF-His used to pull down ASNAP.1-GST or ASNAP.2-GST; recombinant proteins from E. coli, affinity-purified
Details: both partners purified

binding result: binds
B1: GST-ASNAP.1 (natural protein, Arabidopsis, UniProt Q9SPE6 1-289, looked up)
chain: MGDHLVRAEEFEKKAEKKLNGWGIFGSKYEDAADLLEKAANSYKLAKSWDQAGKAYLKLADCHLKSDSKHDAANAYAEAAKCYKKVDTNEAASCLERAVNIFCEIGRLNMAARYYKEIAEYYESDQKFEQAIAYFEKAAEFFQNEEVTTSANQCNLKVAQYAAQLEQYEKAIKIYEDIARHSLNNNLLKYGVKGHLLTAGMCHLCKADVVSITNALEKYQDLDPTFTGTRECKFLADLASAIDEEDIAKFTDVVKEFDSMTPLDSWKTTMLLRVKEKLKAKELEEDDLT
notes: Arabidopsis thaliana alpha-soluble NSF attachment protein ASNAP, splicing variant ASNAP.1 (At3g56190.1); The only vector named for the pull-down constructs is pET-32a, which is not a GST vector; also called ASNAP.1-GST; α-SNAP.1
